Changes are numbered by the printed parent chain. Starred links: 1 amine or outer side, 2 acyl side, 3 side chain; linkers in the order of their positions; H or OH if unused. Non-standard residues stand in square brackets, D forms with d. Groups on a side chain read outwards from the residue. No end group written: not given here. *: point of attachment. C18 diacid = O=C(O)CCCCCCCCCCCCCCCCC(=O)*; γGlu = O=C(O)[C@H](CCC(=O)[*:2])N[*:1]; αMeL = CC(C)C[C@](C)(N)C(=O)O; Dab = NCC[C@H](N)C(=O)O; Dap = NC[C@H](N)C(=O)O; AEEA = NCCOCCOCC(=O)O; Aib = CC(C)(N)C(=O)O
B1: Example 69 (peptide)
chain: YXQGTFTSDFSXXLDKKAQXAFIEYLLEXGPSSGEPPPGEG
modifications: synthetic construct; SITE 2: note = 2-Aminoisobutyric Acid; SITE 12: note = L-ornithine; SITE 13: note = alpha-methyl-leucine; SITE 17: note = Lysine is chemically modified through conjugation of the epsilon-amino group of the Lysine side chain with (2-[2-(2-Amino-ethoxy)-ethoxy]-acetyl)2-(gamma-Glu)
B2: Example 70 (peptide)
chain: B1 chain with E35A
modifications: synthetic construct; SITE 2: note = 2-Aminoisobutyric Acid; SITE 12: note = L-ornithine; SITE 13: note = alpha-methyl-leucine; SITE 17: note = Lysine is chemically modified through conjugation of the epsilon-amino group of the Lysine side chain with (2-[2-(2-Amino-ethoxy)-ethoxy]-acetyl)2-(gamma-Glu)
B3: Example 71 (peptide)
chain: B1 chain with E35A, G39S
modifications: synthetic construct; SITE 2: note = 2-Aminoisobutyric Acid; SITE 12: note = L-ornithine; SITE 13: note = alpha-methyl-leucine; SITE 17: note = Lysine is chemically modified through conjugation of the epsilon-amino group of the Lysine side chain with (2-[2-(2-Amino-ethoxy)-ethoxy]-acetyl)2-(gamma-Glu)
B4: Example 75 (peptide)
chain: B1 chain with E35A, G39S, E40G, G41S
modifications: synthetic construct; SITE 2: note = 2-Aminoisobutyric Acid; SITE 12: note = L-ornithine; SITE 13: note = alpha-methyl-leucine; SITE 17: note = Lysine is chemically modified through conjugation of the epsilon-amino group of the Lysine side chain with (2-[2-(2-Amino-ethoxy)-ethoxy]-acetyl)2-(gamma-Glu)
B5: Example 78 (peptide)
chain: YXQGTFTSDFSXXLDKKAQXAFIEWLLEGGPSSGAPPPSGS
modifications: synthetic construct; SITE 2: note = 2-Aminoisobutyric Acid; SITE 12: note = L-ornithine; SITE 13: note = alpha-methyl-leucine; SITE 17: note = Lysine is chemically modified through conjugation of the epsilon-amino group of the Lysine side chain with (2-[2-(2-Amino-ethoxy)-ethoxy]-acetyl)-(gamma-Glu)
B6: Example 79 (peptide)
chain: B5 chain with X12R, W25Y, G29X
modifications: synthetic construct; SITE 2: note = 2-Aminoisobutyric Acid; SITE 13: note = alpha-methyl-leucine; SITE 17: note = Lysine is chemically modified through conjugation of the epsilon-amino group of the Lysine side chain with (2-[2-(2-Amino-ethoxy)-ethoxy]-acetyl)-(gamma-Glu)-CO-(CH2) 16-CO2H; SITE 20: n
B7: Example 80 (peptide)
chain: B5 chain with X12R, W25Y, G29X
modifications: synthetic construct; SITE 2: note = 2-Aminoisobutyric Acid; SITE 13: note = alpha-methyl-leucine; SITE 17: note = Lysine is chemically modified through conjugation of the epsilon-amino group of the Lysine side chain with (2-[2-(2-Amino-ethoxy)-ethoxy]-acetyl)2-(gamma-Glu)-CO-(CH2 )16-CO2H; SITE 20:
B8: Example 87 (peptide)
chain: B5 chain with W25Y, E28A, S41T
modifications: synthetic construct; SITE 2: note = 2-Aminoisobutyric Acid; SITE 12: note = L-ornithine; SITE 13: note = alpha-methyl-leucine; SITE 17: note = Lysine is chemically modified through conjugation of the epsilon-amino group of the Lysine side chain with (2-[2-(2-Amino-ethoxy)-ethoxy]-acetyl)-(gamma-Glu)
B9: Example 93 (peptide)
chain: B5 chain with W25Y, E28A, S39E
modifications: synthetic construct; SITE 2: note = 2-Aminoisobutyric Acid; SITE 12: note = L-ornithine; SITE 13: note = alpha-methyl-leucine; SITE 17: note = Lysine is chemically modified through conjugation of the epsilon-amino group of the Lysine side chain with (2-[2-(2-Amino-ethoxy)-ethoxy]-acetyl)-(gamma-Glu)

Target: T1, human GIP receptor (human) (UniProt P48546)
T1 sequence (looked up): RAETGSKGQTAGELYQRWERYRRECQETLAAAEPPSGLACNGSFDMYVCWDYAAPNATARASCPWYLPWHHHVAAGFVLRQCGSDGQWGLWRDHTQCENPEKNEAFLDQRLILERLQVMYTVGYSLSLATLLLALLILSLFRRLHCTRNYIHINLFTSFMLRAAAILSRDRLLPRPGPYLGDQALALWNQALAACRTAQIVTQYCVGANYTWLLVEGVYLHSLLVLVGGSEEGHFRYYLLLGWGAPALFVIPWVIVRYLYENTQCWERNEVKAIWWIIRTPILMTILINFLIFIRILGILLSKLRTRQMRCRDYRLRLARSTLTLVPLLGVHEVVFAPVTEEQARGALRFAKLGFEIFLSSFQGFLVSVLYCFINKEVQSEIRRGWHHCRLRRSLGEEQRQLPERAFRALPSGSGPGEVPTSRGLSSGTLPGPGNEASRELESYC
Assay: cell-based or functional assay

Binder	Relative cAMP EC50	cAMP Rel EC50, nM (in the presence of 1% HSA)
Y[Aib]QGTFTSDFS[Dab][αMeL]LDKK([AEEA-γGlu-C18 diacid])AQ[Aib]AFIEYLLEGGPSSGAPPPGGS-NH2 [Example 67]	0.34 nM	73.3 nM
Y[Aib]QGTFTSDFS[Dap][αMeL]LDKK([AEEA-γGlu-C18 diacid])AQ[Aib]AFIEYLLEGGPSSGAPPPGGS-NH2 (ends and bridges not checked) [Example 68]	0.46 nM	85.1 nM
B1	0.136 nM	25.6 nM
B2	0.102 nM	27.4 nM
B3	0.105 nM	48.1 nM
B4	0.0578 nM	16.8 nM
B5	0.228 nM	78.4 nM
B6	0.0773 nM	14.3 nM
B7	0.0593 nM	10.1 nM
B8	0.128 nM	12.8 nM
B9	0.162 nM	27.9 nM

Target: hGLP-1R (Homo sapiens, UniProt P43220)
Assay: cell-based or functional assay

Chain of hGLP-1R (P43220 24-463): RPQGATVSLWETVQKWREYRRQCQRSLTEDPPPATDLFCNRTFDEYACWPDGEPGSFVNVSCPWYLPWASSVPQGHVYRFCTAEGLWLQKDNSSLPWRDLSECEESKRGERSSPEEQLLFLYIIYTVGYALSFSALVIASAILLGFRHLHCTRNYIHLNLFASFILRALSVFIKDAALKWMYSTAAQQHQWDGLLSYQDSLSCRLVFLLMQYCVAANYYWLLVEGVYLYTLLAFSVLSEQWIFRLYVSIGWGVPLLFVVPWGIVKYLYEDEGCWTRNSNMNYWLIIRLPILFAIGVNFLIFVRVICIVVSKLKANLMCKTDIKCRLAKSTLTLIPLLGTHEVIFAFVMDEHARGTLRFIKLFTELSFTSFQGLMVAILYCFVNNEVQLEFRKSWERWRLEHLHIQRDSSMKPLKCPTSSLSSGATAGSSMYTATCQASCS

Binder	Relative cAMP EC50	cAMP Rel EC50, nM (in the presence of 1% HSA)
Y[Aib]QGTFTSDFS[Dab][αMeL]LDKK([AEEA-γGlu-C18 diacid])AQ[Aib]AFIEYLLEGGPSSGAPPPGGS-NH2 [Example 67]	4.07 nM	683 nM
Y[Aib]QGTFTSDFS[Dap][αMeL]LDKK([AEEA-γGlu-C18 diacid])AQ[Aib]AFIEYLLEGGPSSGAPPPGGS-NH2 (ends and bridges not checked) [Example 68]	3.07 nM	612 nM
B1	3.25 nM	279 nM
B2	2.71 nM	620 nM
B3	3.12 nM	1010 nM
B4	4.4 nM	878 nM
B5	1.93 nM	560 nM
B6	1.8 nM	437 nM
B7	2.55 nM	627 nM
B8	2.75 nM	290 nM
B9	2.63 nM	397 nM

Target: human glucagon receptor (human) (UniProt P47871)
Assay: cell-based or functional assay

Chain of human glucagon receptor (human) (P47871 26-477): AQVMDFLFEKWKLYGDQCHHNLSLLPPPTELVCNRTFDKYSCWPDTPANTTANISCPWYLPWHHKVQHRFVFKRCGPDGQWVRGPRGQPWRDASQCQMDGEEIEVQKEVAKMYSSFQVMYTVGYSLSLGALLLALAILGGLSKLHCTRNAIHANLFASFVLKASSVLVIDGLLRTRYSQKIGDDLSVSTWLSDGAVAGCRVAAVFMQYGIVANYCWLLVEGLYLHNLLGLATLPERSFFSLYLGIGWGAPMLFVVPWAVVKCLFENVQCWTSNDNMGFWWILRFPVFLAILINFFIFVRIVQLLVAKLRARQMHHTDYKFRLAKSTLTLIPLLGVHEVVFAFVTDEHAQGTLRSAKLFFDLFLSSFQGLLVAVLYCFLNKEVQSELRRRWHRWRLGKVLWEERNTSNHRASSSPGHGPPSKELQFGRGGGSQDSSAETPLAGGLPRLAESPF

Binder	Relative cAMP EC50	cAMP Rel EC50, nM (in the presence of 1% HSA)
Y[Aib]QGTFTSDFS[Dab][αMeL]LDKK([AEEA-γGlu-C18 diacid])AQ[Aib]AFIEYLLEGGPSSGAPPPGGS-NH2 [Example 67]	3.7 nM	781 nM
Y[Aib]QGTFTSDFS[Dap][αMeL]LDKK([AEEA-γGlu-C18 diacid])AQ[Aib]AFIEYLLEGGPSSGAPPPGGS-NH2 (ends and bridges not checked) [Example 68]	8.55 nM	1160 nM
B1	4.75 nM	387 nM
B2	6.04 nM	717 nM
B3	8.74 nM	2800 nM
B4	4.51 nM	1040 nM
B5	7.06 nM	2640 nM
B6	3.08 nM	903 nM
B7	7.44 nM	1190 nM
B8	8.51 nM	1110 nM
B9	7.16 nM	1390 nM

Target: human GLP1-R (SNAP-GLP-1R expressed in HEK293 cells) (human) (UniProt P43220)
Assay: cell-based or functional assay

Chain of human GLP1-R (SNAP-GLP-1R expressed in HEK293 cells) (human) (P43220 24-463): as the sequence (P43220 24-463) above

Binder	GLP1R Internalization EC50	Internalization % TOP
Y[Aib]QGTFTSDFS[Dab][αMeL]LDKK([AEEA-γGlu-C18 diacid])AQ[Aib]AFIEYLLEGGPSSGAPPPGGS-NH2 [Example 67]	50.9 nM	31.1%
Y[Aib]QGTFTSDFS[Dap][αMeL]LDKK([AEEA-γGlu-C18 diacid])AQ[Aib]AFIEYLLEGGPSSGAPPPGGS-NH2 (ends and bridges not checked) [Example 68]	95.2 nM	33.8%
B1	71.9 nM	58.2%
B2	60 nM	61.3%
B3	58.8 nM	68.6%
B4	61.8 nM	51.9%
B5	78.2 nM	55%
B6	56.6 nM	45.3%
B7	35.8 nM	48.2%
B8	61.8 nM	45.4%
B9	30.4 nM	50.8%

From US20240270821A1, “GIP/GLP1/GCG TRI-RECEPTOR AGONISTS AND USES THEREOF” (priority 2023, published 2024)
